In PMC6692024:

Legend:
[1] = test system: GST-DEK PBD2-Mut2 (Homo sapiens); assay: EMSA (agarose); settings: only slightly reduced; indistinguishable from WT at higher molar ratios; 20 mM Hepes-KOH pH 7.6, 100 mM NaCl, 10 mM NaHSO3, 1 mM EDTA, 1 ug/ml BSA; 30 ul, 1 h at 37 C; 0.6% agarose gel in TBE. PAR overlay assays (poly(ADP-ribose) …); scale: DEK:DNA molar ratio at first detectable shift
[2] = test system: GST-DEK WT (Homo sapiens); assay: EMSA (agarose); settings: 20 mM Hepes-KOH pH 7.6, 100 mM NaCl, 10 mM NaHSO3, 1 mM EDTA, 1 ug/ml BSA; 30 ul, 1 h at 37 C; 0.6% agarose gel in TBE. PAR overlay assays (poly(ADP-ribose) …); scale: DEK:DNA molar ratio at first detectable shift

plasmid DNA (unnamed)
binding signal [1]: 112
binding signal [2]: 84
